# Experimental data reported in IntAct's records for PubMed 35869491.
# B1: Spastin (Homo sapiens), Q9UBP0-1 (parent)
# chain: MNSPGGRGKKKGSGGASNPVPPRPPPPCLAPAPPAAGPAPPPESPHKRNLYYFSYPLFVGFALLRLVAFHLGLLFVWLCQRFSRALMAAKRSSGAAPAPASASAPAPVPGGEAERVRVFHKQAFEYISIALRIDEDEKAGQKEQAVEWYKKGIEELEKGIAVIVTGQGEQCERARRLQAKMMTNLVMAKDRLQLLEKMQPVLPFSKSQTDVYNDSTNLACRNGHLQSESGAVPKRKDPLTHTSNSLPRSKTVMKTGSAGLSGHHRAPSYSGLSMVSGVKQGSGPAPTTHKGTPKTNRTNKPSTPTTATRKKKDLKNFRNVDSNLANLIMNEIVDNGTAVKFDDIAGQDLAKQALQEIVILPSLRPELFTGLRAPARGLLLFGPPGNGKTMLAKAVAAESNATFFNISAASLTSKYVGEGEKLVRALFAVARELQPSIIFIDEVDSLLCERREGEHDASRRLKTEFLIEFDGVQSAGDDRVLVMGATNRPQELDEAVLRRFIKRVYVSLPNEETRLLLLKNLLCKQGSPLTQKELAQLARMTDGYSGSDLTALAKDAALGPIRELKPEQVKNMSASEMRNIRLSDFTESLKKIKRSVSPQTLEAYIRWNKDFGDTTV
# Variants of: B1
# Conditions: with fxl17_human FBXL17, Q9UF56
# Sequence of fxl17_human FBXL17, Q9UF56 (Q9UF56 whole entry): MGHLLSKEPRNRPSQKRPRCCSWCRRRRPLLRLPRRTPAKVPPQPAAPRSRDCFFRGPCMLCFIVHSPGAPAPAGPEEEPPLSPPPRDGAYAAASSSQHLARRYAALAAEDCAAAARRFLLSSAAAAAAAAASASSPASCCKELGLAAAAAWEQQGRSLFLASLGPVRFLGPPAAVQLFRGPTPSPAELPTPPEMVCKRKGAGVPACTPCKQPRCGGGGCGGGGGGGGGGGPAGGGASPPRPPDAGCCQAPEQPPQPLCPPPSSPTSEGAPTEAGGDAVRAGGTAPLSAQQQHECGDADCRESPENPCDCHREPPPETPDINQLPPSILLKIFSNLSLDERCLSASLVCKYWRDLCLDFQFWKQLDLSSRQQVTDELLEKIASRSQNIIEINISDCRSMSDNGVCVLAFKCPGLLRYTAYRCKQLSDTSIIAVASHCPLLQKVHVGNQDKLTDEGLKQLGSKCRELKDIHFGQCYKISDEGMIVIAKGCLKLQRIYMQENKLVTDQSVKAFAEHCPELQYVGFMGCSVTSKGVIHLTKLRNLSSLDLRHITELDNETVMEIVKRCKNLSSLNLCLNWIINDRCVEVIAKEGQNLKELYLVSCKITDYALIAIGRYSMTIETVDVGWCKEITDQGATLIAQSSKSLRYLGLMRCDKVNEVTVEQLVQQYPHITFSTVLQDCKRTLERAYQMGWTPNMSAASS
row,effect of a mutation on the interaction,Variant
1,disrupting interaction strength,Y52C
